According to patent US20230242646A1:

Tests used:
[1] = biological target: membrane-bound full-length human CD89 on HEK293F cells (human) (UniProt P24071); assay: FACS, antibody before heat-aggregated serum IgA on HEK293F-huCD89; IgA detected
[2] = biological target: membrane-bound full-length human CD89 on HEK293F cells (human) (UniProt P24071); assay: FACS HEK293F-huCD89, 10 ug/mL; competitor PE-A3
[3] = biological target: membrane-bound full-length human CD89 on HEK293F cells (human) (UniProt P24071); assay: FACS HEK293F-huCD89, 10 ug/mL; competitor PE-MIP8a
[4] = biological target: membrane-bound full-length human CD89 on HEK293F cells (human) (UniProt P24071); assay: FACS, unlabelled antibody before A3-PE on HEK293F-huCD89
[5] = biological target: membrane-bound full-length human CD89 on HEK293F cells (human) (UniProt P24071); assay: FACS, antibody before non-aggregated serum IgA on HEK293F-huCD89; IgA detected
[6] = biological target: membrane-bound full-length human CD89 on HEK293F cells (human) (UniProt P24071); assay: FACS HEK293F-huCD89, 10 ug/mL; heat-aggregated serum IgA (similar with non-aggregated)
[7] = biological target: membrane-bound full-length human CD89 on HEK293F cells (human) (UniProt P24071); assay: FACS HEK293F-huCD89; non-aggregated serum IgA
[8] = biological target: membrane-bound full-length human CD89 on HEK293F cells (human) (UniProt P24071); assay: FACS HEK293F-huCD89, titrated Ab; heat-aggregated serum IgA
[9] = biological target: membrane-bound full-length human CD89 on HEK293F cells (human) (UniProt P24071); assay: FACS HEK293F-huCD89; heat-aggregated serum IgA
[10] = biological target: membrane-bound full-length human CD89 on HEK293F cells (human) (UniProt P24071); assay: FACS, antibody before heat-aggregated serum IgA on HEK293F-huCD89; IgA detected; remark: listed apart in the source
[11] = biological target: membrane-bound full-length human CD89 on HEK293F cells (human) (UniProt P24071); assay: FACS, antibody before non-aggregated serum IgA on HEK293F-huCD89; IgA detected; remark: listed apart in the source
[12] = biological target: membrane-bound full-length human CD89 on HEK293F cells (human) (UniProt P24071); assay: FACS HEK293F-huCD89, titrated Ab; non-aggregated serum IgA
[13] = biological target: membrane-bound full-length human CD89 on HEK293F cells (human) (UniProt P24071); assay: FACS HEK293F-huCD89, 10 ug/mL; competitor PE-A59
[14] = biological target: membrane-bound full-length human CD89 on HEK293F cells (human) (UniProt P24071); assay: FACS, unlabelled antibody before A59-PE on HEK293F-huCD89
[15] = biological target: recombinant C-terminal polyhistidine-tagged human (extracellular) CD89 (Sino Biological) (human) (UniProt P24071); assay: ELISA, antibody before serum IgA on coated rhuCD89; IgA detected
[16] = biological target: membrane human CD89 on ex vivo primary human neutrophilic granulocytes or monocytic U937 cells (human) (UniProt P24071)
[17] = biological target: membrane-bound full-length human CD89 on HEK293F cells (human) (UniProt P24071); assay: FACS, unlabelled antibody before MIP8a-PE on HEK293F-huCD89
[18] = biological target: membrane-bound full-length human CD89 on HEK293F cells (human) (UniProt P24071); assay: FACS on HEK293F-huCD89
[19] = biological target: membrane-bound full-length human CD89 on HEK293F cells (human) (UniProt P24071); assay: FACS, antibody before secretory IgA on HEK293F-huCD89; IgA detected
[20] = biological target: membrane-bound full-length human CD89 on HEK293F cells (human) (UniProt P24071); assay: FACS, antibody before serum IgA on HEK293F-huCD89; IgA detected
[21] = biological target: recombinant C-terminal polyhistidine-tagged human (extracellular) CD89 (Sino Biological) (human) (UniProt P24071); assay: ELISA on coated rhuCD89

## mouse anti-human CD89 antibody clone A3 (Santa Cruz Biotechnology)
[1]
  IC50 (read off the curve): 0.4 µg/mL
[2]
  % blocking of PE-A3 binding: > 90%
[3]
  % blocking of PE-MIP8a binding: < 25%
[4]
  IC50 (read off the curve): 0.4 µg/mL
[5]
  IC50 (read off the curve): 0.4 µg/mL
[6]
  % blocking of IgA binding: 60%
[7]
  maximum inhibition of IgA binding: 60%
[8]
  maximum inhibition of IgA binding: 60%
[9]
  maximum inhibition of IgA binding: 60%
[10]
  IC50 (read off the curve): 0.7 µg/mL
[11]
  IC50 (read off the curve): 0.8 µg/mL
[12]
  maximum inhibition of IgA binding: 60%
[13]
  % blocking of PE-A59 binding: > 90%

## mouse anti-human CD89 antibody clone A59 (BD Biosciences)
[2]
  % blocking of PE-A3 binding: > 90%
[3]
  % blocking of PE-MIP8a binding: < 25%
[14]
  IC50 (read off the curve): 0.6 µg/mL
[6]
  % blocking of IgA binding: 60%
[7]
  maximum inhibition of IgA binding: 60%
[8]
  maximum inhibition of IgA binding: 60%
[9]
  maximum inhibition of IgA binding: 60%
[10]
  IC50 (read off the curve): 1 µg/mL
[11]
  IC50 (read off the curve): 1 µg/mL
[12]
  maximum inhibition of IgA binding: 60%
[13]
  % blocking of PE-A59 binding: > 90%

## mouse anti-human CD89 antibody clone MIP8a (BioRad)
[1]
  IC50 (read off the curve): 0.2 µg/mL
[15]
  IC50 (read off the curve): 0.07 µg/mL
[2]
  % blocking of PE-A3 binding: 55%
[3]
  % blocking of PE-MIP8a binding: > 90%
[16]
  IC50 (read off the bars), binding of granulocytes to plate-bound serum IgA [Donor 3]: 0.6 µg/mL
[4]
  IC50 (read off the curve): 0.2 µg/mL
[17]
  IC50 (read off the curve): 0.3 µg/mL
[5]
  IC50 (read off the curve): 0.2 µg/mL
[18]
  EC50 (read off the curve): 0.2 µg/mL
[19]
  IC50 (read off the curve): 0.4 µg/mL
[20]
  IC50 (read off the curve): 0.2 µg/mL
[10]
  IC50 (read off the curve): 0.7 µg/mL
[11]
  IC50 (read off the curve): 0.7 µg/mL
[13]
  % blocking of PE-A59 binding: 50%
[21]
  EC50 (read off the curve): 0.02 µg/mL
